Measurements from paper PMC6658616, “Novel Peptide Conjugates of Modified Oligonucleotides for Inhibition of Bacterial RNase P” (Frontiers in Pharmacology, 2019).

Key:
E. coli = experiment: Conjugate penetration into bacterial cells, flow cytometry; type: cell-based, Escherichia coli; conditions: 1 µM conjugate in LB medium, 1 h at 37°C, 3'-fluorescein label, mean ± SD from four independent experiments
A. baumannii = experiment: as above; type: cell-based, Acinetobacter baumannii; conditions: 1 µM conjugate in LB medium, 1 h at 37°C, 3'-fluorescein label, mean ± SD from four independent experiments

Row | Substance | Level of penetration, %, E.coli (E. coli) | Level of penetration, %, A. baumannii (A. baumannii) | Level of penetration, %, A. baumannii (A. baumannii; listed as 5’-Pept2 -pgd-inh3- Flu)
1 | 5’-Pept2-d(CAAGCAGCxCxTxAxCxCxC)–Flu-3’ [5'-Pept2-pgd-inh3-Flu, 5’-Pept2 conjugate of pgd-inh3 with 3’-fluorescein] | 5,3±0,3% | 6,5±0,5% | 6.5%
2 | 5’-Pept4-d(CAAGCAGCxCxTxAxCxCxC)–Flu-3’ [5'-Pept4-pgd-inh3-Flu, 5’-Pept4 conjugate of pgd-inh3 with 3’-fluorescein] | 6,4±0,2% | 2,0±0,3% | 
3 | 5’-Pept3-d(CAAGCAGCxCxTxAxCxCxC)–Flu-3’ [5'-Pept3-pgd-inh3-Flu, 5’-Pept3 conjugate of pgd-inh3 with 3’-fluorescein] | 7,0±1% | 1,7±0,3% | 
4 | 5’-Pept1-d(CAAGCAGCxCxTxAxCxCxC)–Flu-3’ [5'-Pept1-pgd-inh3-Flu, 5’-Pept1 conjugate of pgd-inh3 with 3’-fluorescein] | 4,1±0,1% | 1,8±0,2% | 
